# Numbering of substitutions follows the chain as printed. Names may count otherwise.
# B1: Fab VH5-51_IGHD5-18*01>3_IGHJ4*01 G100K/G104T G24T/S28R/G35V (H:KT TRV) & V3-4_IGLJ1*01 Y93A (Fab, V domains shown)
# VH: EVQLVQSGAEVKKPGESLKISCKTSGYRFTSYWIVWVRQMPGKGLEWMGIIYPGDSDTRYSPSFQGQVTISADKSISTAYLQWSSLKASDTAMYYCARRKYSYTYDYFDYWGQGTLVTVSS
# VL: QTVVTQEPSFSVSPGGTVTLTCGLSSGSVSTSYYPSWYQQTPGQAPRTLIYSTNTRSSGVPDRFSGSILGNKAALTITGAQADDESDYYCVLAMGSGISYVFGTGTKVTVL
# notes: Fab; expressed in E. coli with CH1 (Plasmid A, His6 and Flag tags) and lambda CL (Plasmid E); also called H:KT TRV & Y93A
# B2: Fab VH5-51_IGHD5-18*01>3_IGHJ4*01 G100K/G104T G24T/S28R/G35V (H:KT TRV) & V3-4_IGLJ1*01 T78K (Fab, V domains shown)
# VH: B1 VH
# VL: B1 VL with T78K, A93Y
# notes: Fab; expressed in E. coli with CH1 (Plasmid A, His6 and Flag tags) and lambda CL (Plasmid E); also called H:KT TRV & T78K
# B3: Fab VH5-51_IGHD5-18*01>3_IGHJ4*01 G100K/G104T G24T/S28R/G35V (H:KT TRV) & V3-4_IGLJ1*01 S32A (Fab, V domains shown)
# VH: B1 VH
# VL: B1 VL with S32A, A93Y
# notes: Fab; expressed in E. coli with CH1 (Plasmid A, His6 and Flag tags) and lambda CL (Plasmid E); also called H:KT TRV & S32A
# B4: Fab VH5-51_IGHD5-18*01>3_IGHJ4*01 G100K/G104T G24T/S28R/G35V (H:KT TRV) & V3-4_IGLJ1*01 Y34A (Fab, V domains shown)
# VH: B1 VH
# VL: B1 VL with Y34A, A93Y
# notes: Fab; expressed in E. coli with CH1 (Plasmid A, His6 and Flag tags) and lambda CL (Plasmid E); also called H:KT TRV & Y34A
# B5: Fab VH5-51_IGHD5-18*01>3_IGHJ4*01 G100K/G104T G24T/S28R/G35V (H:KT TRV) & V3-4_IGLJ1*01 T53A (Fab, V domains shown)
# VH: B1 VH
# VL: B1 VL with T53A, A93Y
# notes: Fab; expressed in E. coli with CH1 (Plasmid A, His6 and Flag tags) and lambda CL (Plasmid E); also called H:KT TRV & T53A
# B6: Fab VH5-51_IGHD5-18*01>3_IGHJ4*01 G100K/G104T G24T/S28R/G35V (H:KT TRV) & V3-4_IGLJ1*01 V29A (Fab, V domains shown)
# VH: B1 VH
# VL: B1 VL with V29A, A93Y
# notes: Fab; expressed in E. coli with CH1 (Plasmid A, His6 and Flag tags) and lambda CL (Plasmid E); also called H:KT TRV & V29A
# B7: Fab VH5-51_IGHD5-18*01>3_IGHJ4*01 G100K/G104T G24T/S28R/G35V & V3-4_IGLJ1*01 V91L/S96P (Fab, V domains shown)
# VH: B1 VH
# VL: B1 VL with V91L, A93Y, S96P
# notes: Fab expressed in E. coli; heavy chain vector adds CH1 with His6 and Flag tags, light chain vector adds lambda CL; Template of the S52, T53 and S57 light chain mutants; also called H:KT TRV & L:LP
# B8: Fab VH5-51_IGHD5-18*01>3_IGHJ4*01 G100K/G104T G24T/S28R/G35V & V3-4_IGLJ1*01 V91L/S96P S52K (Fab, V domains shown)
# VH: B1 VH
# VL: B1 VL with S52K, V91L, A93Y, S96P
# notes: Fab expressed in E. coli; heavy chain vector adds CH1 with His6 and Flag tags, light chain vector adds lambda CL; also called H:KT TRV & L:LP S52K
# B9: Fab VH5-51_IGHD5-18*01>3_IGHJ4*01 G100K/G104T G24T/S28R/G35V & V3-4_IGLJ1*01 V91L/S96P S52I (Fab, V domains shown)
# VH: B1 VH
# VL: B1 VL with S52I, V91L, A93Y, S96P
# notes: Fab expressed in E. coli; heavy chain vector adds CH1 with His6 and Flag tags, light chain vector adds lambda CL; also called H:KT TRV & L:LP S52I
# B10: Fab VH5-51_IGHD5-18*01>3_IGHJ4*01 G100K/G104T G24T/S28R/G35V & V3-4_IGLJ1*01 V91L/S96P S52T (Fab, V domains shown)
# VH: B1 VH
# VL: B1 VL with S52T, V91L, A93Y, S96P
# notes: Fab expressed in E. coli; heavy chain vector adds CH1 with His6 and Flag tags, light chain vector adds lambda CL; also called H:KT TRV & L:LP S52T
# B11: Fab VH5-51_IGHD5-18*01>3_IGHJ4*01 G100K/G104T G24T/S28R/G35V & V3-4_IGLJ1*01 V91L/S96P S52N (Fab, V domains shown)
# VH: B1 VH
# VL: B1 VL with S52N, V91L, A93Y, S96P
# notes: Fab expressed in E. coli; heavy chain vector adds CH1 with His6 and Flag tags, light chain vector adds lambda CL; also called H:KT TRV & L:LP S52N
# B12: Fab VH5-51_IGHD5-18*01>3_IGHJ4*01 G100K/G104T G24T/S28R/G35V & V3-4_IGLJ1*01 V91L/S96P S52V (Fab, V domains shown)
# VH: B1 VH
# VL: B1 VL with S52V, V91L, A93Y, S96P
# notes: Fab expressed in E. coli; heavy chain vector adds CH1 with His6 and Flag tags, light chain vector adds lambda CL; also called H:KT TRV & L:LP S52V
# B13: Fab VH5-51_IGHD5-18*01>3_IGHJ4*01 G100K/G104T G24T/S28R/G35V & V3-4_IGLJ1*01 V91L/S96P S52P (Fab, V domains shown)
# VH: B1 VH
# VL: B1 VL with S52P, V91L, A93Y, S96P
# notes: Fab expressed in E. coli; heavy chain vector adds CH1 with His6 and Flag tags, light chain vector adds lambda CL; also called H:KT TRV & L:LP S52P
# B14: Fab VH5-51_IGHD5-18*01>3_IGHJ4*01 G100K/G104T G24T/S28R/G35V & V3-4_IGLJ1*01 V91L/S96P S52Q (Fab, V domains shown)
# VH: B1 VH
# VL: B1 VL with S52Q, V91L, A93Y, S96P
# notes: Fab expressed in E. coli; heavy chain vector adds CH1 with His6 and Flag tags, light chain vector adds lambda CL; also called H:KT TRV & L:LP S52Q
# B15: Fab VH5-51_IGHD5-18*01>3_IGHJ4*01 G100K/G104T G24T/S28R/G35V & V3-4_IGLJ1*01 V91L/S96P S52M (Fab, V domains shown)
# VH: B1 VH
# VL: B1 VL with S52M, V91L, A93Y, S96P
# notes: Fab expressed in E. coli; heavy chain vector adds CH1 with His6 and Flag tags, light chain vector adds lambda CL; also called H:KT TRV & L:LP S52M
# B16: Fab VH5-51_IGHD5-18*01>3_IGHJ4*01 G100K/G104T G24T/S28R/G35V & V3-4_IGLJ1*01 V91L/S96P S52L (Fab, V domains shown)
# VH: B1 VH
# VL: B1 VL with S52L, V91L, A93Y, S96P
# notes: Fab expressed in E. coli; heavy chain vector adds CH1 with His6 and Flag tags, light chain vector adds lambda CL; also called H:KT TRV & L:LP S52L
# B17: Fab VH5-51_IGHD5-18*01>3_IGHJ4*01 G100K/G104T G24T/S28R/G35V & V3-4_IGLJ1*01 V91L/S96P S52G (Fab, V domains shown)
# VH: B1 VH
# VL: B1 VL with S52G, V91L, A93Y, S96P
# notes: Fab expressed in E. coli; heavy chain vector adds CH1 with His6 and Flag tags, light chain vector adds lambda CL; also called H:KT TRV & L:LP S52G
# B18: Fab VH5-51_IGHD5-18*01>3_IGHJ4*01 G100K/G104T G24T/S28R/G35V & V3-4_IGLJ1*01 V91L/S96P S52E (Fab, V domains shown)
# VH: B1 VH
# VL: B1 VL with S52E, V91L, A93Y, S96P
# notes: Fab expressed in E. coli; heavy chain vector adds CH1 with His6 and Flag tags, light chain vector adds lambda CL; also called H:KT TRV & L:LP S52E
# B19: Fab VH5-51_IGHD5-18*01>3_IGHJ4*01 G100K/G104T G24T/S28R/G35V & V3-4_IGLJ1*01 V91L/S96P S52F (Fab, V domains shown)
# VH: B1 VH
# VL: B1 VL with S52F, V91L, A93Y, S96P
# notes: Fab expressed in E. coli; heavy chain vector adds CH1 with His6 and Flag tags, light chain vector adds lambda CL; also called H:KT TRV & L:LP S52F
# B20: Fab VH5-51_IGHD5-18*01>3_IGHJ4*01 G100K/G104T G24T/S28R/G35V & V3-4_IGLJ1*01 V91L/S96P S52H (Fab, V domains shown)
# VH: B1 VH
# VL: B1 VL with S52H, V91L, A93Y, S96P
# notes: Fab expressed in E. coli; heavy chain vector adds CH1 with His6 and Flag tags, light chain vector adds lambda CL; also called H:KT TRV & L:LP S52H
# B21: Fab VH5-51_IGHD5-18*01>3_IGHJ4*01 G100K/G104T G24T/S28R/G35V & V3-4_IGLJ1*01 V91L/S96P S52D (Fab, V domains shown)
# VH: B1 VH
# VL: B1 VL with S52D, V91L, A93Y, S96P
# notes: Fab expressed in E. coli; heavy chain vector adds CH1 with His6 and Flag tags, light chain vector adds lambda CL; also called H:KT TRV & L:LP S52D
# Biological target: T1, Recombinant Human DLL4 (human, UniProt Q9NR61 27-524)
# T1 construct: also called delta-like protein 4; rHuman DLL4
# Assay: ELISA, DLL4 coated on plate, Fab at 100 nM, absorbance at 450 nm minus blank
row,Binder,ELISA Signal-blank (100 nM Fab)
1,B1,0.185
2,B2,0.48
3,B3,0.502
4,B4,0.085
5,B5,0.532
6,B6,0.394

# Biological target: T2, Recombinant Human DLL4 (delta-like protein 4) (human, UniProt Q9NR61 27-524)
# T2 construct: also called rHuman DLL4; Delta-like 4
# Assay: ELISA, DLL4 coated on plate, Fab at 100 nM
row,Binder,ELISA Signal-blank (100 nM Fab)
1,B7,0.39
2,B8,0.32
3,B9,0.42
4,B10,0.34
5,B11,0.45
6,B12,0.44
7,B13,0.32
8,B14,0.39
9,B15,0.46
10,B16,0.4
11,B17,0.53
12,B18,0.38
13,B19,0.33
14,B20,0.44
15,B21,0.39

# From US20120316071A1 (published 2012)
